Target: T1, peptide LYAR_(175-219) (human, UniProt Q9NX58 175-219)
T1 construct: LYAR, human, residues 175-219
Assay: ITC; peptide BRD2 489-540 with peptide LYAR 175-219 (Supplementary Figure S5E)
Conditions: both partners purified

stoichiometry N: 1
B1: peptide BRD2_(489-540) (peptide, UniProt P25440 489-540, looked up)
peptide: SSSEEEEEEDEEDEEEEESESSDSEEERAHRLAELQEQLRAVHEQLAALSQG
notes: Bromodomain-containing protein 2, human, residues 489-540

— article PMC6821171, “LYAR potentiates rRNA synthesis by recruiting BRD2/4 and the MYST-type acetyltransferase KAT7 to rDNA” (Nucleic Acids Research, 2019)
